Assay results: PMC6629125, “Lysyl oxidase–like 2 (LOXL2)–mediated cross-linking of tropoelastin” (The FASEB Journal, 2019)

Biological target: T1, full-length lysyl oxidase-like 2 (FL-LOXL2), recombinant human (human, UniProt Q9Y4K0 26-774)
T1 construct: Lysyl oxidase-like 2 (LOXL2), human, full-length cDNA in pcDNA3.1-myc-His, amplified from the start ATG; the protein was secreted by CHO cells; also called LOX-like 2; source: DHFR-deficient CHO cells, transfected, secreted into Opti-MEM; purified (HisTrap, gel filtration)
T1 sequence (looked up): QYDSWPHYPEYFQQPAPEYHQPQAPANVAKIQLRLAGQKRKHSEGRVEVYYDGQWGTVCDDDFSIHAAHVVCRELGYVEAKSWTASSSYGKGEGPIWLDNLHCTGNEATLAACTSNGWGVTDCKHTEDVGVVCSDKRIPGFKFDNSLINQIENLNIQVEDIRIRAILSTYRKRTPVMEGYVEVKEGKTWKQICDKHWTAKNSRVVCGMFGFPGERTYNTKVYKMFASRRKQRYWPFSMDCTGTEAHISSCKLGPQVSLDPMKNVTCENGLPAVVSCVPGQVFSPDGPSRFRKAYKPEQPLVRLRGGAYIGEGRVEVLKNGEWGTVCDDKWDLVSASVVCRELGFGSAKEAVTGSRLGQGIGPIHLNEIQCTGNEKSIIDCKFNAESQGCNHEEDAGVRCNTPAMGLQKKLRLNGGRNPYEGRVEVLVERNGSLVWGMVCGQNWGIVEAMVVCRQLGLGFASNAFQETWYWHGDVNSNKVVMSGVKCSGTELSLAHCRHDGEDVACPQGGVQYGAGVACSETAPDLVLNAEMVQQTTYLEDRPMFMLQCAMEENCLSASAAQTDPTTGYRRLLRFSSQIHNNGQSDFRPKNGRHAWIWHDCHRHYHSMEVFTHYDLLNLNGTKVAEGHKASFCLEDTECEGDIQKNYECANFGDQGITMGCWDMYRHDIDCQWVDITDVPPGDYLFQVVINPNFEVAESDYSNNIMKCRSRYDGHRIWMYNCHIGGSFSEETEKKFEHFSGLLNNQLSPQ
Assay: SPR; ProteOn XPR36; LOXL2 amine-coupled on a GLC chip; TE as analyte, serial 1:1 dilution from 830 nM; 10 mM Na-HEPES, 150 mM NaCl, 2 mM CaCl2, 0.05% Tween 20, pH 7.4, 25°C; steady-state analysis
Conditions: both partners purified

- Kd: 146 nM
B1: human tropoelastin, isoform 2 (natural protein, UniProt P15502-2 27-724, looked up)
chain: GGVPGAIPGGVPGGVFYPGAGLGALGGGALGPGGKPLKPVPGGLAGAGLGAGLGAFPAVTFPGALVPGGVADAAAAYKAAKAGAGLGGVPGVGGLGVSAGAVVPQPGAGVKPGKVPGVGLPGVYPGGVLPGARFPGVGVLPGVPTGAGVKPKAPGVGGAFAGIPGVGPFGGPQPGVPLGYPIKAPKLPGGYGLPYTTGKLPYGYGPGGVAGAAGKAGYPTGTGVGPQAAAAAAAKAAAKFGAGAAGVLPGVGGAGVPGVPGAIPGIGGIAGVGTPAAAAAAAAAAKAAKYGAAAGLVPGGPGFGPGVVGVPGAGVPGVGVPGAGIPVVPGAGIPGAAVPGVVSPEAAAKAAAKAAKYGARPGVGVGGIPTYGVGAGGFPGFGVGVGGIPGVAGVPGVGGVPGVGGVPGVGISPEAQAAAAAKAAKYGVGTPAAAAAKAAAKAAQFGLVPGVGVAPGVGVAPGVGVAPGVGLAPGVGVAPGVGVAPGVGVAPGIGPGGVAAAAKSAAKVAAKAQLRAAAGLGAGIPGLGVGVGVPGLGVGAGVPGLGVGAGVPGFGAVPGALAAAKAAKYGAAVPGVLGGLGALGGVGIPGGVVGAGPAAAAAAAKAAAKAAQFGLVGAAGLGGLGVGGLGVPGVGGLGGIPPAAAAKAAKYGAAGLGGVLGGAGQFPLGGVAARPGFGLSPIFPGGACLGKACGRKRK
notes: also called TE; source: E. coli, purified (acetone/buffer extraction, filtration, dialysis, freeze drying)
